Laboratory results published in patent US20240117018A1.

Legend:
Experiment in all cases: cell-based or functional assay
[1] = biological target: HIV-1 Env of pseudovirus 1394C9G1(Rev-) (HIV-1)
[2] = biological target: HIV-1 Env of pseudovirus 249M B10 (HIV-1)
[3] = biological target: HIV-1 Env of pseudovirus 3817.v2.c59 (HIV-1)
[4] = biological target: HIV-1 Env of pseudovirus 62357_14_D3_4589 (HIV-1)
[5] = biological target: HIV-1 Env of pseudovirus 6811.v7.c18 (HIV-1)
[6] = biological target: HIV-1 Env of pseudovirus 7030102001E5(Rev-) (HIV-1)
[7] = biological target: HIV-1 Env of pseudovirus 89-F1_2_25 (HIV-1)
[8] = biological target: HIV-1 Env of pseudovirus AC10.0.29 (HIV-1)
[9] = biological target: HIV-1 Env of pseudovirus BF1266.431a (HIV-1)
[10] = biological target: HIV-1 Env of pseudovirus BJOX010000.06.2 (HIV-1)
[11] = biological target: HIV-1 Env of pseudovirus C1080.c03 (HIV-1)
[12] = biological target: HIV-1 Env of pseudovirus CAAN5342.A2 (HIV-1)
[13] = biological target: HIV-1 Env of pseudovirus CNE17 (HIV-1)
[14] = biological target: HIV-1 Env of pseudovirus CNE19 (HIV-1)
[15] = biological target: HIV-1 Env of pseudovirus CNE21 (HIV-1)
[16] = biological target: HIV-1 Env of pseudovirus CNE5 (HIV-1)
[17] = biological target: HIV-1 Env of pseudovirus CNE58 (HIV-1)
[18] = biological target: HIV-1 Env of pseudovirus Ce1086_B2 (HIV-1)
[19] = biological target: HIV-1 Env of pseudovirus Ce1176_A3 (HIV-1)
[20] = biological target: HIV-1 Env of pseudovirus Ce2060_G9 (HIV-1)
[21] = biological target: HIV-1 Env of pseudovirus HIV-0013095-2.11 (HIV-1)
[22] = biological target: HIV-1 Env of pseudovirus HIV-16055-2.3 (HIV-1)
[23] = biological target: HIV-1 Env of pseudovirus MS208.A1 (HIV-1)
[24] = biological target: HIV-1 Env of pseudovirus Q23.17 (HIV-1)
[25] = biological target: HIV-1 Env of pseudovirus Q259.d2.17 (HIV-1)
[26] = biological target: HIV-1 Env of pseudovirus Q461.e2 (HIV-1)
[27] = biological target: HIV-1 Env of pseudovirus Q769.d22 (HIV-1)
[28] = biological target: HIV-1 Env of pseudovirus SC422661.8 (HIV-1)
[29] = biological target: HIV-1 Env of pseudovirus T251-18 (HIV-1)
[30] = biological target: HIV-1 Env of pseudovirus TRO.11 (HIV-1)
[31] = biological target: HIV-1 Env of pseudovirus WEAU_d15_410_787 (HIV-1)
[32] = biological target: HIV-1 Env of pseudovirus X1193_c1 (HIV-1)
[33] = biological target: HIV-1 Env of pseudovirus X1632_S2_B10 (HIV-1)
[34] = biological target: HIV-1 Env of pseudovirus X2088_c9 (HIV-1)
[35] = biological target: HIV-1 Env of pseudovirus ZM109F.PB4 (HIV-1)
[36] = biological target: HIV-1 Env of pseudovirus ZM135M.PL10a (HIV-1)
[37] = biological target: HIV-1 Env of pseudovirus ZM247v1(Rev-) (HIV-1)
[38] = biological target: HIV-1 Env of pseudovirus ZM53M.PB12 (HIV-1)

PGT145 (antibody)
neutralization IC50 [1]: 0.001 µg/mL | neutralization IC80 [1]: 0.005 µg/mL | neutralization IC50 [2]: 0.947 µg/mL | neutralization IC80 [2]: 41.3 µg/mL | IC50 (Titer in TZM.bl cells) [3]: > 50 µg/mL | IC80 (Titer in TZM.bl cells) [3]: > 50 µg/mL | neutralization IC50 [4]: > 50 µg/mL | neutralization IC80 [4]: > 50 µg/mL | IC50 (Titer in TZM.bl cells) [5]: > 50 µg/mL | IC80 (Titer in TZM.bl cells) [5]: > 50 µg/mL | neutralization IC50 [6]: > 50 µg/mL | neutralization IC80 [6]: > 50 µg/mL | IC50 (Titer in TZM.bl cells) [7]: 0.8 µg/mL | IC80 (Titer in TZM.bl cells) [7]: 20 µg/mL | neutralization IC50 [8]: 0.01 µg/mL | neutralization IC80 [8]: 0.025 µg/mL | neutralization IC50 [9]: 1.34 µg/mL | neutralization IC80 [9]: 18.5 µg/mL | IC50 (Titer in TZM.bl cells) [10]: > 50 µg/mL | IC80 (Titer in TZM.bl cells) [10]: > 50 µg/mL | IC50 (Titer in TZM.bl cells) [11]: 0.024 µg/mL | IC80 (Titer in TZM.bl cells) [11]: 0.146 µg/mL | neutralization IC50 [12]: 6.67 µg/mL | neutralization IC80 [12]: 25.5 µg/mL | neutralization IC50 [13]: 0.091 µg/mL | neutralization IC80 [13]: 1.16 µg/mL | neutralization IC50 [14]: 0.103 µg/mL | neutralization IC80 [14]: 1.13 µg/mL | neutralization IC50 [15]: < 0.001 µg/mL | neutralization IC80 [15]: 0.009 µg/mL | IC50 (Titer in TZM.bl cells) [16]: 0.001 µg/mL | IC80 (Titer in TZM.bl cells) [16]: 0.013 µg/mL | neutralization IC50 [17]: 0.183 µg/mL | neutralization IC80 [17]: 7.41 µg/mL | neutralization IC50 [18]: > 50 µg/mL | neutralization IC80 [18]: > 50 µg/mL | neutralization IC50 [19]: > 50 µg/mL | neutralization IC80 [19]: > 50 µg/mL | neutralization IC50 [20]: 0.016 µg/mL | neutralization IC80 [20]: 0.205 µg/mL | neutralization IC50 [21]: 9.27 µg/mL | neutralization IC80 [21]: > 50 µg/mL | neutralization IC50 [22]: 0.003 µg/mL | neutralization IC80 [22]: 0.051 µg/mL | neutralization IC50 [23]: 0.334 µg/mL | neutralization IC80 [23]: 18 µg/mL | neutralization IC50 [24]: 1.32 µg/mL | neutralization IC80 [24]: > 50 µg/mL | neutralization IC50 [25]: 44.2 µg/mL | neutralization IC80 [25]: > 50 µg/mL | neutralization IC50 [26]: 7.8 µg/mL | neutralization IC80 [26]: > 50 µg/mL | neutralization IC50 [27]: 0.26 µg/mL | neutralization IC80 [27]: 25.5 µg/mL | neutralization IC50 [28]: 0.024 µg/mL | neutralization IC80 [28]: 0.082 µg/mL | IC50 (Titer in TZM.bl cells) [29]: 0.351 µg/mL | IC80 (Titer in TZM.bl cells) [29]: 1.39 µg/mL | neutralization IC50 [30]: 0.04 µg/mL | neutralization IC80 [30]: 0.118 µg/mL | neutralization IC50 [31]: 1.95 µg/mL | neutralization IC80 [31]: 31.5 µg/mL | IC50 (Titer in TZM.bl cells) [32]: 0.013 µg/mL | IC80 (Titer in TZM.bl cells) [32]: 0.091 µg/mL | IC50 (Titer in TZM.bl cells) [33]: 0.012 µg/mL | IC80 (Titer in TZM.bl cells) [33]: 2.03 µg/mL | IC50 (Titer in TZM.bl cells) [34]: > 50 µg/mL | IC80 (Titer in TZM.bl cells) [34]: > 50 µg/mL | neutralization IC50 [35]: 0.042 µg/mL | neutralization IC80 [35]: 0.234 µg/mL | neutralization IC50 [36]: > 50 µg/mL | neutralization IC80 [36]: > 50 µg/mL | neutralization IC50 [37]: 7.19 µg/mL | neutralization IC80 [37]: > 50 µg/mL | neutralization IC50 [38]: 0.367 µg/mL | neutralization IC80 [38]: 11.8 µg/mL

PGT151 (antibody)
neutralization IC50 [1]: 0.022 µg/mL | neutralization IC80 [1]: 0.733 µg/mL | neutralization IC50 [2]: 0.007 µg/mL | neutralization IC80 [2]: 0.023 µg/mL | IC50 (Titer in TZM.bl cells) [3]: > 50 µg/mL | IC80 (Titer in TZM.bl cells) [3]: > 50 µg/mL | neutralization IC50 [4]: 0.004 µg/mL | neutralization IC80 [4]: 0.023 µg/mL | IC50 (Titer in TZM.bl cells) [5]: > 50 µg/mL | IC80 (Titer in TZM.bl cells) [5]: > 50 µg/mL | neutralization IC50 [6]: 0.001 µg/mL | neutralization IC80 [6]: 0.011 µg/mL | IC50 (Titer in TZM.bl cells) [7]: 22.9 µg/mL | IC80 (Titer in TZM.bl cells) [7]: > 50 µg/mL | neutralization IC50 [8]: 0.007 µg/mL | neutralization IC80 [8]: 0.023 µg/mL | neutralization IC50 [9]: > 50 µg/mL | neutralization IC80 [9]: > 50 µg/mL | IC50 (Titer in TZM.bl cells) [10]: > 50 µg/mL | IC80 (Titer in TZM.bl cells) [10]: > 50 µg/mL | IC50 (Titer in TZM.bl cells) [11]: > 50 µg/mL | IC80 (Titer in TZM.bl cells) [11]: > 50 µg/mL | neutralization IC50 [12]: 0.005 µg/mL | neutralization IC80 [12]: 0.038 µg/mL | neutralization IC50 [13]: 0.093 µg/mL | neutralization IC80 [13]: > 50 µg/mL | neutralization IC50 [14]: 0.014 µg/mL | neutralization IC80 [14]: > 50 µg/mL | neutralization IC50 [15]: 0.004 µg/mL | neutralization IC80 [15]: 0.012 µg/mL | IC50 (Titer in TZM.bl cells) [16]: > 50 µg/mL | IC80 (Titer in TZM.bl cells) [16]: > 50 µg/mL | neutralization IC50 [17]: 0.004 µg/mL | neutralization IC80 [17]: 0.016 µg/mL | neutralization IC50 [18]: 2.65 µg/mL | neutralization IC80 [18]: > 50 µg/mL | neutralization IC50 [19]: 0.006 µg/mL | neutralization IC80 [19]: 0.018 µg/mL | neutralization IC50 [20]: 0.135 µg/mL | neutralization IC80 [20]: > 50 µg/mL | neutralization IC50 [21]: > 50 µg/mL | neutralization IC80 [21]: > 50 µg/mL | neutralization IC50 [22]: 0.143 µg/mL | neutralization IC80 [22]: > 50 µg/mL | neutralization IC50 [23]: < 0.001 µg/mL | neutralization IC80 [23]: 0.003 µg/mL | neutralization IC50 [24]: 0.007 µg/mL | neutralization IC80 [24]: 0.045 µg/mL | neutralization IC50 [25]: > 50 µg/mL | neutralization IC80 [25]: > 50 µg/mL | neutralization IC50 [26]: 12.6 µg/mL | neutralization IC80 [26]: > 50 µg/mL | neutralization IC50 [27]: > 50 µg/mL | neutralization IC80 [27]: > 50 µg/mL | neutralization IC50 [28]: 0.005 µg/mL | neutralization IC80 [28]: 0.028 µg/mL | IC50 (Titer in TZM.bl cells) [29]: 0.327 µg/mL | IC80 (Titer in TZM.bl cells) [29]: > 50 µg/mL | neutralization IC50 [30]: > 50 µg/mL | neutralization IC80 [30]: > 50 µg/mL | neutralization IC50 [31]: 0.01 µg/mL | neutralization IC80 [31]: > 50 µg/mL | IC50 (Titer in TZM.bl cells) [32]: 0.004 µg/mL | IC80 (Titer in TZM.bl cells) [32]: 0.027 µg/mL | IC50 (Titer in TZM.bl cells) [33]: 0.061 µg/mL | IC80 (Titer in TZM.bl cells) [33]: > 50 µg/mL | IC50 (Titer in TZM.bl cells) [34]: > 50 µg/mL | IC80 (Titer in TZM.bl cells) [34]: > 50 µg/mL | neutralization IC50 [35]: 0.609 µg/mL | neutralization IC80 [35]: > 50 µg/mL | neutralization IC50 [36]: > 50 µg/mL | neutralization IC80 [36]: > 50 µg/mL | neutralization IC50 [37]: 0.009 µg/mL | neutralization IC80 [37]: > 50 µg/mL | neutralization IC50 [38]: > 50 µg/mL | neutralization IC80 [38]: > 50 µg/mL
